In one data set the target is SHMT2 K281S-R284S. In words: SEC; Superdex 200 column (16/600), last step of the purification; 20 mM Hepes pH 7.2, 250 mM NaCl, 10% glycerol. (In general: SEC sorts molecules by how far they enter the pores of the column.)
The target of a further data set is T1, SHMT2 WT (UniProt P34897).
T1 sequence: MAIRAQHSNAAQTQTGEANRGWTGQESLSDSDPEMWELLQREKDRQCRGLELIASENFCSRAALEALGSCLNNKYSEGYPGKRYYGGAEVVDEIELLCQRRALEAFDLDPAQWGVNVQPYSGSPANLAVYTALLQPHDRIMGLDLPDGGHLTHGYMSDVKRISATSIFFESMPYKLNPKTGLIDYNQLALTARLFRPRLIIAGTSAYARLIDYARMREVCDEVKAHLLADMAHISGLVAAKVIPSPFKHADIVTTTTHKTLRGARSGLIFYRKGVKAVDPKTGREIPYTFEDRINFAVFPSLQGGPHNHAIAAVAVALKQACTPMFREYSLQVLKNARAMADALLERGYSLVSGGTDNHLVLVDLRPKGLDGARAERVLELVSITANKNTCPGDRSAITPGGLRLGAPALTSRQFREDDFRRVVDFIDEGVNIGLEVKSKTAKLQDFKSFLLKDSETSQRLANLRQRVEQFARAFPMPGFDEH
In words: EMSA. Particulars: EMSA: 20 mM HEPES pH 7.4, 150 mM NaCl, 20 ug/ml BSA, 0.1 ug tRNA, RNase inhibitor, 8% glycerol, 25 C, 30 min; 4% native PAGE in 0.5x TBE. A general note: A gel shift assay detects complexes by their altered migration in electrophoresis.

For data set [1], the target named is Serine hydroxymethyltransferase 2 (SHMT2) wild type. In words: SEC; Superdex 200 column (16/600), last step of the purification; 20 mM Hepes pH 7.2, 250 mM NaCl, 10% glycerol.

A word on the stoichiometry N: it is a count of units in the complex or per binding partner. Consider SHMT2 K281S-R284S (enzyme), for which the stoichiometry N with SHMT2 K281S-R284S stood at 4.
The Kd is a measure of binding affinity in units of concentration. A lower Kd goes with a tighter complex. With “GGGAUAAAGAAAAAAGCGGUGAGUGGGCGAACUACAAUUCCCAAAAGGCCACAAAGGGGCCACCACUACGCAUGCGUAGAUCCCUCCCGUUAGCUUUGGCGCCUCAGCGAGCUCUUCUCGCGCAUGCGUUCUCCGAACGGUCUUCUUCCGACAGCUUGCUGCCCUAGACCAGAGUUGGUGGCUGGACCUCCUGCGACUUCCGAGUUGCG [UTR2 RNA]”, the Kd with SHMT2 WT amounted to 560 nM.
With “Serine hydroxymethyltransferase 2 (SHMT2) wild type (enzyme)”, in data set [1], the stoichiometry N turned out to be 4.

These data come from PMC12328718.
